The target of experiment [1] is CCR9^QTY–Fc (UniProt P51686). In words: MST; 5 nM NT647-labelled receptor-Fc against a gradient of ligand; 1x PBS, 10 mM DTT, arginine at different concentrations; Monolith NT.115 pico, 25°C; data from the early T-Jump period; Kd model (law of mass action).
In experiment [2] the target is CCL25 (Homo sapiens) (UniProt O15444). The note with it: cited from earlier work.
For experiment [3], the target named is IL8 (dimer) (Homo sapiens) (UniProt P10145). Kind of experiment: cell-based assay. The note with it: cited from earlier work.
The target of experiment [4] is IL8 (monomer) (Homo sapiens) (UniProt P10145). In words: cell-based assay. The note with it: cited from earlier work.
The target of experiment [5] is IL8 (Homo sapiens) (UniProt P10145). The conditions noted are these: cited from earlier work.
Experiment [6] deals with IFNγR1^QTY–Fc. In words: MST; 5 nM NT647-labelled receptor-Fc against a gradient of ligand; 1x PBS, 10 mM DTT, arginine at different concentrations; Monolith NT.115 pico, 25°C; data from the early T-Jump period; Kd model (law of mass action).
In experiment [7] the target is IFNγ (Homo sapiens) (UniProt P01579). Kind of experiment: SPR. The note with it: cited from earlier work.
Experiment [8] shares this target. In words: cell-based assay. The conditions noted are these: cited from earlier work.
For experiment [9], the target named is IL4 (Homo sapiens) (UniProt P05112). In words: SPR. The note with it: cited from earlier work.
For experiment [10], the target named is IL10Rα^QTY–Fc. Kind of experiment: MST; 5 nM NT647-labelled receptor-Fc against a gradient of ligand; 1x PBS, 10 mM DTT, arginine at different concentrations; Monolith NT.115 pico, 25°C; data from the early T-Jump period; Kd model (law of mass action).
Experiment [11] addresses IFNλR1^QTY–Fc. The description is as above.

pKd: −log10 of the molar value.

For eight substances, Kd results are on record in PMC7419741.

Sequence of CXCR2 (P25025 whole entry): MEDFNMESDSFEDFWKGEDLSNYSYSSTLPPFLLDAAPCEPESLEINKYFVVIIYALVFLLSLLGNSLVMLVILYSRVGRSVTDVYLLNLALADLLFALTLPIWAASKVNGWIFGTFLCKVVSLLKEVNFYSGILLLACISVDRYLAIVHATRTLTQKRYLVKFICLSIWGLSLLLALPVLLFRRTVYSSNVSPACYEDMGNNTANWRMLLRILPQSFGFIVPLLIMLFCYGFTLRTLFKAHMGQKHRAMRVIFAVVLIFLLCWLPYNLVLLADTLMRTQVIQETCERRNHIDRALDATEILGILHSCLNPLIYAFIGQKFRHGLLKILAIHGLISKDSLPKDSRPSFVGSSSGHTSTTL
Sequence of IFNγR1 (P15260 18-245): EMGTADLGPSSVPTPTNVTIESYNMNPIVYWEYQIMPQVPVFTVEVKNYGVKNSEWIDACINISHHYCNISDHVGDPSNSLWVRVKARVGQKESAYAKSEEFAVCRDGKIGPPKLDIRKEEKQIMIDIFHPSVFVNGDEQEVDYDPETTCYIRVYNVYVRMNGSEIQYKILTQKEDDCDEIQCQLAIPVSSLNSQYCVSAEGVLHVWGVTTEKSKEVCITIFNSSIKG
Sequence of IFNγ (Homo sapiens) (P01579 24-161): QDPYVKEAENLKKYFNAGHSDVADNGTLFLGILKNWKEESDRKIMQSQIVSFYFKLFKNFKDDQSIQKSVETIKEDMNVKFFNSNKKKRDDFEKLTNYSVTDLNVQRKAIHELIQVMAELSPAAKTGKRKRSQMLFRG
Sequence of CCL25 (O15444 24-150): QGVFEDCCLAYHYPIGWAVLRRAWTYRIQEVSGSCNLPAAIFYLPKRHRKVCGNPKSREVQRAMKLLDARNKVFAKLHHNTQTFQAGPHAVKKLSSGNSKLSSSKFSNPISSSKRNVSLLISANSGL
Sequence of CCL25 (Homo sapiens) (O15444 24-150): as above
Sequence of IL29 (Q8IU54 20-200): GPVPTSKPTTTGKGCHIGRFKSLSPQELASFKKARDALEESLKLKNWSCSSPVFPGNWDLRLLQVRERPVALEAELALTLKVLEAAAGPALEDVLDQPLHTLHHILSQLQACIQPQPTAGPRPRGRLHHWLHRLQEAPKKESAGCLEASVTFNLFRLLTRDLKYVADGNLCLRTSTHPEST
Sequence of IL4 (Homo sapiens) (P05112 25-153): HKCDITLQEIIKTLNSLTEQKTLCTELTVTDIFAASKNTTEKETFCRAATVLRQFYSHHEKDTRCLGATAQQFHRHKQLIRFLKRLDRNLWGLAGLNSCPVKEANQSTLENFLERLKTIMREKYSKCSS
Sequence of IL8 (dimer) (Homo sapiens) (P10145 28-99): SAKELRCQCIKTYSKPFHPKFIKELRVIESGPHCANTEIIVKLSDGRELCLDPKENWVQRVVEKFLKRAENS
Sequence of IL8 (monomer) (Homo sapiens) (P10145 28-99): as above
Sequence of IL8 (Homo sapiens) (P10145 28-99): as above
Sequence of IFNγ (P01579 24-161): as the sequence (P01579 24-161) above
Sequence of IL4Rα (P24394 26-232): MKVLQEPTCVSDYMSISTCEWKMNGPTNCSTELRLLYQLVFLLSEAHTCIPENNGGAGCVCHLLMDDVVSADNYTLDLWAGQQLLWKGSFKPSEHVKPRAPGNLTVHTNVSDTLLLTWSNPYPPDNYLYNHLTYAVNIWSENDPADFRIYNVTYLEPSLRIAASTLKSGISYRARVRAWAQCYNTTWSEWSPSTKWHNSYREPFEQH
Sequence of IL10 (P22301 19-178): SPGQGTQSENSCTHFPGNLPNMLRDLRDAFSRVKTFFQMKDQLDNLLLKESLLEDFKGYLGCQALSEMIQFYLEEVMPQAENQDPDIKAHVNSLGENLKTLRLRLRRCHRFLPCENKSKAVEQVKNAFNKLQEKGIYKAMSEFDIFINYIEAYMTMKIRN

By pKd is commonly meant −log10 of the Kd, conventionally taken in molar units. “CCL25 (from UniProt O15444 24-150) (ligand)” had a pKd in experiment [1] of 7.43.

Regarding CCR9 (from UniProt P51686), the pKd in [2] was 8.10.

In the case of CXCR2 (from UniProt P25025), the pKd in experiment [3] was 8.07; in [4], 9.30; in [5], 7.15.

In the case of “IFNγ (from UniProt P01579 24-161) (ligand)”, the pKd in [6] is 8.21.

Take IFNγR1 (from UniProt P15260): the values for the negative logarithm of the Kd (pKd) in experiment [7] and in [8] were 7.51 and 8.77, respectively.

With IL4Rα (from UniProt P24394), the pKd in experiment [9] was 9.00.

“IL10 (from UniProt P22301 19-178) (ligand)” had a pKd in experiment [10] of 8.80.

As for “IL29 (from UniProt Q8IU54 20-200) (ligand)”, the pKd in experiment [11] is 7.94.
